Assay results as given in the DeepSol protein solubility set.

Test: soluble on expression in E. coli; label from the status in PepcDB or PDB records

Row | Sequence | soluble on expression in E. coli
1 | MWNAGRETSSPGTELSENQAKKEKERLIKELQLITEERNDLRDRLRFLTERSMKNRSHFRPNPYYEDLERMEEAVMSILHNLEMENTEVHENNHKLKKEITFSR | soluble
2 | MSCKPNILVLFYGYGSIVELAKEIGKGAEEAGAEVKIRRVRETLPPEFQSRIPFDKVKDIPEVTLDDMRWADGFAIGSPTRYGNMAGGLKTFLDTTAILWKDNVLYGKPVTFFTEASTVHGGHETTILTMSTYAYHFGMIIVPIGYGIPELFQTTTGGGPYGATHLGSKEELDEMERKIARFQGKRITEVAKAIKCCNK | soluble
3 | MSLSGRYNMNIILGATGQVGSMLVDNLLGKGQPVRAVVRDGLKAQGLKNKGVEVKIADYLDVEALKKAFQGGSSVFLLTPENPESENFINEIQRIMSNYREAVLSSGISKIVGLSSMGAQHKSGTGNLMASYMLEHAFSDLEIEQVFVRPAYYFSNWLGYLELVREYGILPTFFPPELELPMIAPPDVAGFLSDVMTCKTQQERIYEISGPHDYSSSDIAKIFGDVLNKNVTLQQVLPEEWENTLIQAGFSKDGTRNLMLMTKAVIDGKTKNETTNRLRFSTNFKNYLQSVILNMSEGHHHHHH | soluble
4 | MMTKYGVVGTGYFGAELARFMSKVEGAKITAIYDPVNAAPIAKELNCVATATMEALCSHPDVDCVIIASPNYLHKAPVIAAAKAGKHVFCEKPIALNYQDCKDMVDACKEAGVTFMAGHVMNFFHGVRHAKALIKAGEIGEVTQVHTKRNGFEDVQDEISWKKIRAKSGGHLYHHIHELDCTLFIMDETPSLVSMAAGNVAHKGEKFGDEDDVVLITLEFESGRFATLQWGSSFHYPEHYVLIEGTTGAILIDMQNTAGYLIKAGKKTHFLVHESQAEDDDRRNGNISSEMDGAIAYGKPGKRTPMWLSSIMKLEMQYLHDVINGLEPGEEFAKLLTGEAATNAIATADAATLSSNEGRKVKLTEILGLEHHHHHH | soluble
5 | MTYMVSILLVSPRPGHDVATAERNDVLRATGLAPEQLEQVLIDDVEKHLPDFSRFDGIIVGGSPLNISNETYSDWQKHVHTELSRIVYSAIPSFFICYGNSFLVDLTGGTVGRTHPEDSGATIVSLTADGLTDRITRDLPTTFTSLTGHTENAICLGDSTVLLATGDTCPIQMIRANETTWACQFHAEMDAQAMKTRMDFYKDYGYFSPEDYDAIVSSLPSIDTTYSNRVLRNFIEVCEGKR | not soluble
6 | MAILAARIAVSNLHKETKKVFSDVMEDLYNYINPHNGKHSPMVAKSTLDIVLANKDRLNSAIIYDRDFSYNYFGFKTLERSYLLKINGKVAERPQHMLMRVSVGIHKEDIDAAIETYNLLSERWFTHASPTLFNAGTNRPQLSSCFLLSMKDDSIEGIYDTLKQCALISKSAGGIGVAVSCIRATGSYIAGTNGNSNGLVPMLRVYNNTARYVDQGGNKRPGAFAIYLEPWHLDIFEFLDLKKNTGKEEQRARDLFFALWIPDLFMKRVETNQDWSLMCPNECPGLDEVWGEEFEKLYASYEKQGRVRKVVKAQQLWYAIIESQTETGTPYMLYKDSCNRKSNQQNLGTIKCSNLCTEIVEYTSKDEVAVCNLASLALNMYVTSEHTYDFKKLAEVTKVVVRNLNKIIDINYYPVPEACLSNKRHRPIGIGVQGLADAFILMRYPFESAEAQLLNKQIFETIYYGALEASCDLAKEQGPYETYEGSPVSKGILQYDMWNVTPTDLWDWKVLKEKIAKYGIRNSLLIAPMPTASTAQILGNNESIEPYTSNIYTRRVLSGEFQIVNPHLLKDLTERGLWHEEMKNQIIACNGSIQSIPEIPDDLKQLYKTVWEISQKTVLKMAAERGAFIDQSQSLNIHIAEPNYGKLTSMHFYGWKQGLKTGMYYLRTRAHHHHHH | soluble
7 | MAHHHHHHMAHGSFDAVRKEMETQEKIIATLQRDNESLLREKKEILSRCKQLEHDFEHLEAKHSLLLSAQQDFAVRSNMHTANDSAKIVNLQAQVEELQTNLETEKRRCALLLQERNDLAQSKSDTPSLVGSAEITNVAVVREQQGRSEDIVAKLRESQRIHSIQKSTIDALHSEVTRLESERKVSHSRESNLLREVDSLRTQVRDLESALQQKKGGIRELMSSCQAGSANAQRLKKQETRIRLLEKALLEKDEFTKRAMEELRAEAKKVCERYQSTVAELRQRLEVPKDDPELQKRISTLERENLDLRRALGGASVSLAVESAQPVQKLATEPKHHTDVTDKADKPGGQALKAPGSHELEITHLHSVIERLRAEICEHKQRNITLQSKLDSIHAEWDARLAEMKTNFALQIQTLRSAHNEELSRLEASHQTQLLEISKCSKADRGDSLASRLSRIVEEKGYDASLIAIGERLCFLEKRYCQKEEEKTHELLEMKRVAELEMKIQKEKTDLLLEQKNTQIKRFQVQLDELLAALSILQATS | not soluble
8 | MDKIKVGLQYWIPQHALTRLVGKLASARAGSLTTAIIRWFIKQYNVNMDEALHSDPTHFKTFNEFFVRELKAGVRPIAEGEKVITHPADACVSQFGAIEYGKLIQAKGHTYSAQELLGGDAKLAEEFRDGDFATLYLSPRDYHRVHMPCDGTLRQMIYVPGDLFSVNPLTAENVPNLFARNERVVCIFDTEFGPMAQVLVGATIVGSIELVWAGTVTPPRGNTVYRWDYPANGNQAVVLKKGEEMGRFKLGSTVINLFAKQAIRFDDSMALGAPTRMGEPYAHQA | soluble
9 | MAAERKTKLSKNLLRMKFMQRGLDSETKKQLEEEEKKIISEEHWYLDLPELKEKESFIIEEQSFLLCEDLLYGRMSFRGFNPEVEKLMLQMNAKHKAEEVEDETVELDVSDEEMARRYETLVGTIGKKFARKRDHANYEEDENGDITPIKAKKMFLKPQD | soluble
10 | MSLKFMSRFTFKQFHINQNSCAMKVGTDGILLGAWADVKHCKNILDMGCGTGLLALMLAQRTEENCQIQAVELDPIAAKQAQENINNSVWKNRIQLTQVDIQHFLQTTEQTFDLIVANPPYFEQGIACKNEERELARYTKQSHLNWLEWAATRLSENGRISFVLPYEAGKTLTKSTALFCIKQTNVITKIGKTPQRMLLTFAKQPEVLMQDQLVIYDADNQYTEAFIELTKDFYLKEGHHHHHH | soluble
11 | MSIWKEAKDASGRIYYYNTLTKKSTWEKPKELISQEELLLRENGWKAAKTADGKVYYYNPTTRETSWTIPAFEKK | soluble
12 | MNHKVHHHHHHIEGRHMAVVKEVLEIAEKIKNMEIRGAGKIARSAAYALQLQAEKSKATNVDEFWKEMKQAAKILFETRPTAVSLPNALRYVMHRGKIAYSSGADLEQLRFVIINAAKEFIHNSEKALERIGEFGAKRIEDGDVIMTHCHSKAAISVMKTAWEQGKDIKVIVTETRPKWQGKITAKELASYGIPVIYVVDSAARHYMKMTDKVVMGADSITVNGAVINKIGTALIALTAKEHRVWTMIAAETYKFHPETMLGQLVEIEMRDPTEVIPEDELKTWPKNIEVWNPAFDVTPPEYVDVIITERGIIPPYAAIDILREEFGWALKYTEPWED | soluble
13 | MGSKRRFSSEHPDPVETSIPEQAAEIAEELSKQHPLPSEEPLVHHDAGEFKGLQRHHTSAEEAQKLEDGKINPFTGREFTPKYVDILKIRRELPVHAQRDEFLKLYQNNQIMVFVGETGSGKTTQIPQFVLFDEMPHLENTQVACTQPRRVAAMSVAQRVAEEMDVKLGEEVGYSIRFENKTSNKTILKYMTDGMLLREAMEDHDLSRYSCIILDEAHERTLATDILMGLLKQVVKRRPDLKIIIMSATLDAEKFQRYFNDAPLLAVPGRTYPVELYYTPEFQRDYLDSAIRTVLQIHATEEAGDILLFLTGEDEIEDAVRKISLEGDQLVREEGCGPLSVYPLYGSLPPHQQQRIFEPAPESHNGRPGRKVVISTNIAETSLTIDGIVYVVDPGFSKQKVYNPRIRVESLLVSPISKASAQQRAGRAGRTRPGKCFRLYTEEAFQKELIEQSYPEILRSNLSSTVLELKKLGIDDLVHFDFMDPPAPETMMRALEELNYLACLDDEGNLTPLGRLASQFPLDPMLAVMLIGSFEFQCSQEILTIVAMLSVPNVFIRPTKDKKRADDAKNIFAHPDGDHITLLNVYHAFKSDEAYEYGIHKWCRDHYLNYRSLSAADNIRSQLERLMNRYNLELNTTDYESPKYFDNIRKALASGFFMQVAKKRSGAKGYITVKDNQDVLIHPSTVLGHDAEWVIYNEFVLTSKNYIRTVTSVRPEWLIEIAPAYYDLSNFQKGDVKLSLERIKEKVDRLNELKQGKNKKKSKHSKKHHHHHH | soluble
14 | MTELEEIGININSIENTEQIISQLMDNYSDDVLHLVFSYVKNRTTAEDLTQEIFIKCYEKLDQFNNKSSIKTWLYRIAINHCKDYLGSWHYRKLNFSEKIWNYLPSKSKHVEEEIIAKDVANSLMSAVMDLPVKYREVVFLHYYEELSLANISKITGVNSNTLKTRLKHARELLKTKMKKEV | not soluble
15 | ITDRKVLERELATRNAFLTAVLQTSVSAIVALNAEGGIVYANDEARRLLVLQPHRGGLRMEAVLETLDGRPLPEADMPSALVRATGAPLHDLRYAIRRPDGQFGILSINAAPLPQAADDARIVISVTDIT | not soluble
16 | GPGSMSANDVQNPPVEDDEVPTLEAADTQQASKPSKRYAKAMAKMGLKPEPNISKVHIRKRAALSFVVNQPEVYRFPGTNTFLIFGEAQLGDTTMQTQEAAARAVSGALVEEVGTAGEETSELAGETPAAAAPSESKQTPDDVEIVEGEFDDKEIAVVMAQGKTDRIGAIRALRNNKGDIVNAIMELTMDPN | not soluble
17 | MAHHHHHHMTVARDHDIDDHDTSFTSFGGERPPFERIPVPSMASKEYTENLPAFDSDRPMPPPRSVFERFSRVMQLQFGQDPDMPLLGSRAERKYRSWLDYVTSPPSPLLPRNYVDAYTRPNPCPEEYWWASWRWPRIKYVNAKVPPPVDGKYNDYYHYLAYKNWMERERDVYVAHANLVNEMAMRCLVKEGQYNAAKNCRHLYHKGFAMSRMEELNQTLLYMALTGNAAIRETPYPENFVEEKRKIYDDWLFRTRMKKPGDVA | not soluble
18 | MRARSSLSAGQREELVALFEQGYSYWAAAHHVGVGVYPVRALFRRFLLHGKLCLVEKPSKQQYSFEIKKEVVQRHLAGESKMDLAREFGLSSDQMVGYWSRKWRKGGDDALKLKPKGRPKGSAKPKVLTEEDKLRRENERLRAENAYLKKLRDLKNQGHALEHHHHHH | not soluble
19 | MGSDKIHHHHHHMAEKFDAIVVGAGPAGNAAAYTMAKAGLSVLQLERGETPGTKNVQGAILYADALERIIPDFRDDAPLERHIIEQRMWVLDEKSFIGTNYRSDAFNSDQPNRYTILRAPFDKWFSGKVKEAGALVICETTVTELIQEGKKVIGVRTDREGGDIYADVVILADGVNSLLAKKAGFHGELEAKNVALAVKEIHFLPEEIVQSRFNIKGNEGVVIEIAGAVTHGMVGTAFLYTNKESITLGIGCLLSDFKNAGIAPYTLLEKLKAHPAIAPLIEGGEMKEYAAHLIPEGGYKAVPTLYGEGWMIAGDSAGLVNAVHREGSNLAMTSGRLAAETVIALKEMKLPCTAPHLARYKTALDDSFVMKDLRKYKELPDILHGNPHFFSVYPQLLNRAAHTMLMVDGQDKHSKEKTIRGSFVQQRSLWGLVGDAYRMWRATR | not soluble
20 | MNQQTVNVIGAGLAGSEAAWQLAKRGIQVKLYEMRPVKQTPAHHTDKFAELVCSNSLRSNTLANAVGVLKEEMRALDSAIIAAADECSVPAGGALAVDRHEFAASVTNRVKNHPNVTVINEEVTEIPEGPTIIATGPLTSESLSAQLKELTGEDYLYFYDAAAPIVEKDSLDMDKVYLKSRYDKGEAAYLNCPMTEEEFDRFHEALTSAETVPLKEFEKEIFFEGCMPIEVMAKRGKKTMLFGPMKPVGLEHPVTGKRPYAVVQLRQDDAAGTLYNIVGFQTHLKWGDQKEVLKLIPGLENVEIVRYGVMHRNTFINSPSLLKPTYQFKNRSDLFFAGQMTGVEGYVESAASGLVAGINAAKLVLGEELVIFPQETAIGSMAHYITTTNQKNFQPMNANFGLLKELPVKIKNKKERNEQYANRAIETIQTISKTILEHHHHHH | soluble
